Data taken from article PMC11291478, “Molecular and structural basis of an ATPase-nuclease dual-enzyme anti-phage defense complex” (Cell Research, 2024).
Where “and” joins values, the source holds several entries; their conditions need not be identical. Equal values may be shown once.

Legend:
DUF4297–HerA complex [1] = target: T1, DUF4297–HerA complex (Escherichia coli, UniProt A0ABF7PQ56); assay: cryo-EM structure; format: binding; settings: with 59-bp dsDNA, 1 mM AMPPNP, 5 mM MgCl2; site at interface of RecA-like domains of adjacent HerA subunits; states 1 and 2
T1 construct: gene CG692_10950; co-expressed in E. coli BL21(DE3) from pET28a, His tag at N-terminus of DUF4297; about 1 MDa complex of 12 DUF4297 and 6 HerA; with DUF4297 domain-containing protein (dsDNA endonuclease Cap4-like domain-containing anti-phage protein)
T1 sequence (A0ABF7PQ56 1-571): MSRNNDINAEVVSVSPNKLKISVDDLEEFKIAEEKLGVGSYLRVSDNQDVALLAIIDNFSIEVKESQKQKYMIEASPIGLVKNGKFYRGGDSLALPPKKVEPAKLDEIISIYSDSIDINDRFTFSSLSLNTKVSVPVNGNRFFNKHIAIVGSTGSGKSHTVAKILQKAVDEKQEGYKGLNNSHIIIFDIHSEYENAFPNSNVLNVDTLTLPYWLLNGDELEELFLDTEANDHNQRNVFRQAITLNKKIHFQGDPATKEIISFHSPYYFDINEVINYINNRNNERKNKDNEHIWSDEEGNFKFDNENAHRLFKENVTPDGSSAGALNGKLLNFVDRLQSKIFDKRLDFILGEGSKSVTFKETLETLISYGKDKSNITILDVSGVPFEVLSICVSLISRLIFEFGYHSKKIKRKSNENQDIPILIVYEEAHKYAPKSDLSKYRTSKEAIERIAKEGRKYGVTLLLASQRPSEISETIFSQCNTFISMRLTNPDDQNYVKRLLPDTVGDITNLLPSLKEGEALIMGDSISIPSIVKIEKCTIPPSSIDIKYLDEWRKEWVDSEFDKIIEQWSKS
T1 sequence (A0ABF7PQ57 1-394 partner): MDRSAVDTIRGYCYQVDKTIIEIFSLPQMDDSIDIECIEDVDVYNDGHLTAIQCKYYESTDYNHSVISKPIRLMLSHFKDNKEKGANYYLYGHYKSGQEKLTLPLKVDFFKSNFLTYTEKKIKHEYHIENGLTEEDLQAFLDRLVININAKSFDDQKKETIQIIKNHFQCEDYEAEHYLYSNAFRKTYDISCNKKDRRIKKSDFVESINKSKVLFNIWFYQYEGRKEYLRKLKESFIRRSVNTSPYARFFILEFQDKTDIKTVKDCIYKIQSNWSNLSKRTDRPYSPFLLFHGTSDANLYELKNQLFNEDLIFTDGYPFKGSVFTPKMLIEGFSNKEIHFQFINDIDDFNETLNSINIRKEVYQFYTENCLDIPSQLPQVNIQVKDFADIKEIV

DUF4297–HerA complex [2] = target: T1, DUF4297–HerA complex; assay: phosphate release, modified Baginski method; format: biochemical; settings: 5 nM complex, 20 mM Tris-HCl pH 8.0, 50 mM NaCl, 5 mM MgCl2, 5 mM DTT, 37 °C
DUF4297 [3] = assay: AUC; sedimentation velocity, 55,000 rpm, 4 °C, ~1 mg/mL, 20 mM Tris-HCl pH 8.0, 500 mM NaCl
HerA [4] = assay: cryo-EM structure; co-expressed and purified DUF4297–HerA complex without nucleotide or DNA, ~1.0 mg/mL, C2 symmetry imposed, 2.87 Å
DUF4297 [5] = assay: as above
HerA [6] = assay: cryo-EM structure; HerA alone, ~1.0 mg/mL, 3.14 Å
HerA [7] = assay: cryo-EM structure; purified DUF4297–HerA complex with 1 mM AMPPNP, 5 mM MgCl2 and 59-bp dsDNA (1:1.2); state 1 at 2.73 Å and state 2 at 2.92 Å
DUF4297 [8] = target: DUF4297

In the case of `Nc1ncnc2c1ncn2[C@@H]1O[C@H](COP(=O)(O)OP(=O)(O)NP(=O)(O)O)[C@@H](O)[C@H]1O` [AMPPNP], the cryo-EM structure (DUF4297–HerA complex [1]) is reported as “three DNA-engaged subunits A–C bind ATP (AMPPNP in the structure)”.
With `Nc1ncnc2c1ncn2[C@@H]1O[C@H](COP(=O)(O)OP(=O)(O)OP(=O)(O)O)[C@@H](O)[C@H]1O` [ATP] the “phosphate release, modified Baginski method” value (DUF4297–HerA complex [2]) was “the DUF4297–HerA complex exhibits a high turnover rate under the same testing condition”.
DUF4297 (enzyme) was tested, and the stoichiometry N (DUF4297 [3]) was 2.
In the case of HerA (enzyme), the stoichiometry N (HerA [4]) is reported as 6, the stoichiometry N (DUF4297 per HerA) (DUF4297 [5]) is reported as 2 and the stoichiometry N (HerA [6]) is reported as 6 and 5. For the same compound, the stoichiometry N (HerA [7]) was 6 and the fold decrease in dsDNA nuclease activity of DUF4297 alone against the DUF4297–HerA complex (DUF4297 [8]) was 300 fold.
